Experimental data published in patent US8741844B2, “Use of mutated antithrombins for treating or preventing coagulation disorders” (Universite Paris-Sud XI, priority 2007, dated 2014).

Columns and labels:
[1] = test system: pentasaccharide bound plasma antithrombin (plasma anti-factor Xa activity), HUVEC surface; experiment: Rotachrom heparin anti factor Xa assay after pre-incubation of pentasaccharide containing plasma-mutated antithrombin mixture on HUVEC surface; assay type: cell-based, human; conditions: for virtual pentasaccharide concentration (residual anti-factor Xa activity): 3 μg/mL pentasaccharide
Experimental: Finally to evaluate effect of mutated antithrombin on anti-factor Xa activity in conditions as close as possible to in vivo conditions, Rotachrom® heparin method is used to test anti-factor Xa activity in plasma pre-incubated with mutated antithrombin (0-0.6 g/L, preferably 0.15-0.6 g/L in kinetic buffer), during 30 min at 37° C. on human umbilical vein endothelial cells (HUVEC) in culture. Cells are inoculated at 20 000 cells/cm^2 in 96 well plate and grown to confluence for 24 hours in EGM-2 media (Clonetics, Cambrex). After two wash with phosphate buffer saline (Gibco, Invitrogen) cells are starved for 4 hours in EBM-2 media (Clonetics, Cambrex) and then washed again twice in phosphate buffer saline to prevent excess contamination with heparin present in the culture medium. HUVEC coated wells are then used for 30 min incubation of pentasaccharide containing plasma-mutated antithrombin mixture (125 μl/cm^2) before Rotachrom® heparin assay
To evaluate the role of blood-vessel endothelium, or more precisely, the role of glycosamino-glycans exposed on endothelial cell surface, on competition between natural antithrombin and mutated antithrombin for pentasaccharide binding, the same experiment as described above is done but with pre-incubation of pentasaccharide containing plasma-mutated antithrombin mixture on HUVEC surface (FIG. 8).

[2] = Heparin affinity column elution with NaCl gradient; assay type: binding
Experimental: Conditioned media are thawed, pooled, salt concentration adjusted to 0.4 M NaCl and then applied on an heparin immobilized column (Hitrap Heparin 5 ml or Heparin-sepharose CL6B 50 ml, GE Biological) equilibrated with 10 mM Tris, or with 20 mM phosphate buffer, 0.4 M NaCl and 0.1 mM EDTA, pH 7.4. The bound proteins are eluted in the same buffer with a gradient from 0.4 M to 2 M NaCl. The fractions eluted from 0.8 M NaCl and more contained only wild type antithrombin or mutated antithrombins with high heparin affinity. […] The collected fractions are pooled and the salt concentration is decreased either by over night dialysis against 10 mM Tris, or 20 mM phosphate, and 0.1 M NaCl, pH 7.4 at 4° C. or applied on an HiPrep 26/10 desalting column equilibrated with 10 mM Tris, or 20 mM phosphate, and 0.1 M NaCl, pH 7.4. The antithrombin is then concentrated by ion exchange chromatography using a “Resource Q” 1 ml column (GE, Biological) equilibrated with 10 mM Tris, or 20 mM phosphate, and 0.1 M NaCl, pH 7.4 and eluted in the same buffer with a NaCl gradient from […] to 0.5 M or 20 mM to 0.5 M. The antithrombin concentration in each elution fraction is estimated by absorbance at 280 nm with an absorption coefficient ε=0.65 g^−1·l·cm^−1 and the integrity of purified wild type antithrombin or mutated antithrombins is tested by western blotting using the same couple of antibodies as described before, and electrophoresis on 10% acrylamide/bisacrylamide gel in native and denaturing conditions followed by coomassie brilliant blue R-250 staining (FIG. 4). Then, the antithrombin preparation is aliquoted and stored at −80° C. before use for functional assay. The same procedure is used to purify plasma antithrombin (used as internal reference) from human plasma.

| Molecule | virtual pentasaccharide concentration (residual anti-factor Xa activity) ([1]; ratio 1/1) [µg/mL] | virtual pentasaccharide concentration (residual anti-factor Xa activity) ([1]; ratio 2/1) [µg/mL] | virtual pentasaccharide concentration (residual anti-factor Xa activity) ([1]; ratio 4/1) [µg/mL] | elution from heparin affinity column compared with wild type antithrombin [2] | effect on anti-factor Xa activity of pentasaccharide ([1]; over-dosing conditions) |
| --- | --- | --- | --- | --- | --- |
| AT-N135Q-R393H: human antithrombin with substitution at 393 by Histidine and at 135 by Glutamine | 1.66 | 0.91 | 0.26 | higher ionic strength than wild type antithrombin |  |
| AT-N135Q-Pro394: human antithrombin with Proline inserted between 393 and 394 and substitution at 135 by Glutamine (protein, listed as Homo sapiens) HGSPVDICTAKPRDIPMNPMCIYRSPEKKATEDEGSEQKIPEATNRRVWELSKANSRFATTFYQHLADSKNDNDNIFLSPLSISTAFAMTKLGACNDTLQQLMEVFKFDTISEKTSDQIHFFFAKLNCRLYRKAQKSSKLVSANRLFGDKSLTFNETYQDISELVYGAKLQPLDFKENAEQSRAAINKWVSNKTEGRITDVIPSEAINELTVLVLVNTIYFKGLWKSKFSPENTRKELFYKADGESCSASMMYQEGKFRYRRVAEGTQVLELPFKGDDITMVLILPKPEKSLAKVEKELTPEVLQEWLDELEEMMLVVHMPRFRIEDGFSLKEQLQDMGLVDLFSPEKSKLPGIVAEGRDDLYVSDAFHKAFLEVNEEGSEAAASTAVVIAGRPSLNPNRVTFKANRPFLVFIREVPLNTIIFMGRVANPCVK | 1.69 | 0.94 | 0.27 | higher ionic strength than wild type antithrombin |  |
| AT-Pro394: human antithrombin with insertion of a Proline between positions 393 and 394 (protein, listed as Homo sapiens) HGSPVDICTAKPRDIPMNPMCIYRSPEKKATEDEGSEQKIPEATNRRVWELSKANSRFATTFYQHLADSKNDNDNIFLSPLSISTAFAMTKLGACNDTLQQLMEVFKFDTISEKTSDQIHFFFAKLNCRLYRKANKSSKLVSANRLFGDKSLTFNETYQDISELVYGAKLQPLDFKENAEQSRAAINKWVSNKTEGRITDVIPSEAINELTVLVLVNTIYFKGLWKSKFSPENTRKELFYKADGESCSASMMYQEGKFRYRRVAEGTQVLELPFKGDDITMVLILPKPEKSLAKVEKELTPEVLQEWLDELEEMMLVVHMPRFRIEDGFSLKEQLQDMGLVDLFSPEKSKLPGIVAEGRDDLYVSDAFHKAFLEVNEEGSEAAASTAVVIAGRPSLNPNRVTFKANRPFLVFIREVPLNTIIFMGRVANPCVK |  |  |  |  | decreases anti-factor Xa activity |
| AT-N135Q-ΔR393: human antithrombin with deletion of position 393 and substitution at 135 by Glutamine (protein, listed as Homo sapiens) HGSPVDICTAKPRDIPMNPMCIYRSPEKKATEDEGSEQKIPEATNRRVWELSKANSRFATTFYQHLADSKNDNDNIFLSPLSISTAFAMTKLGACNDTLQQLMEVFKFDTISEKTSDQIHFFFAKLNCRLYRKAQKSSKLVSANRLFGDKSLTFNETYQDISELVYGAKLQPLDFKENAEQSRAAINKWVSNKTEGRITDVIPSEAINELTVLVLVNTIYFKGLWKSKFSPENTRKELFYKADGESCSASMMYQEGKFRYRRVAEGTQVLELPFKGDDITMVLILPKPEKSLAKVEKELTPEVLQEWLDELEEMMLVVHMPRFRIEDGFSLKEQLQDMGLVDLFSPEKSKLPGIVAEGRDDLYVSDAFHKAFLEVNEEGSEAAASTAVVIAGSLNPNRVTFKANRPFLVFIREVPLNTIIFMGRVANPCVK |  |  |  | higher ionic strength than wild type antithrombin |  |
| AT-N135Q-ΔS394: human antithrombin with deletion of position 394 and substitution at 135 by Glutamine (protein, listed as Homo sapiens) HGSPVDICTAKPRDIPMNPMCIYRSPEKKATEDEGSEQKIPEATNRRVWELSKANSRFATTFYQHLADSKNDNDNIFLSPLSISTAFAMTKLGACNDTLQQLMEVFKFDTISEKTSDQIHFFFAKLNCRLYRKAQKSSKLVSANRLFGDKSLTFNETYQDISELVYGAKLQPLDFKENAEQSRAAINKWVSNKTEGRITDVIPSEAINELTVLVLVNTIYFKGLWKSKFSPENTRKELFYKADGESCSASMMYQEGKFRYRRVAEGTQVLELPFKGDDITMVLILPKPEKSLAKVEKELTPEVLQEWLDELEEMMLVVHMPRFRIEDGFSLKEQLQDMGLVDLFSPEKSKLPGIVAEGRDDLYVSDAFHKAFLEVNEEGSEAAASTAVVIAGRLNPNRVTFKANRPFLVFIREVPLNTIIFMGRVANPCVK |  |  |  | higher ionic strength than wild type antithrombin |  |
| AT-N135Q-ΔR393-S394: human antithrombin with deletion of positions 393 and 394 and substitution at 135 by Glutamine (protein, listed as Homo sapiens) HGSPVDICTAKPRDIPMNPMCIYRSPEKKATEDEGSEQKIPEATNRRVWELSKANSRFATTFYQHLADSKNDNDNIFLSPLSISTAFAMTKLGACNDTLQQLMEVFKFDTISEKTSDQIHFFFAKLNCRLYRKAQKSSKLVSANRLFGDKSLTFNETYQDISELVYGAKLQPLDFKENAEQSRAAINKWVSNKTEGRITDVIPSEAINELTVLVLVNTIYFKGLWKSKFSPENTRKELFYKADGESCSASMMYQEGKFRYRRVAEGTQVLELPFKGDDITMVLILPKPEKSLAKVEKELTPEVLQEWLDELEEMMLVVHMPRFRIEDGFSLKEQLQDMGLVDLFSPEKSKLPGIVAEGRDDLYVSDAFHKAFLEVNEEGSEAAASTAVVIAGLNPNRVTFKANRPFLVFIREVPLNTIIFMGRVANPCVK |  |  |  | higher ionic strength than wild type antithrombin |  |
